Laboratory results taken from the DeepSol protein solubility set.

Experiment: soluble on expression in E. coli; label from the status in PepcDB or PDB records
In the case of “MIAIVAGNSAGVSRVANQPLEHEPSYWAATAEIEQPSPALEHDLDVDVAIIGAGYTGLSTAYHLKKDHGITATVVEANRIGWGCSGRNGGFAMIGVGKDTYNAWISKVGLEQARKTFEFGRDAVRTLRTVLQENNINAASGNEGFLLTAHRRARISELIETQRQLKHYFGFDTEYLDAHDVRTHYLSGTQIFGALHYPEHFPIHPMRYAQGLGRRVRQLGVPIYENSPVNTWRRAGRLHELLTPRGVVRAKKVVIATNGYTPDGLHPIVRGRLMNVLSNIVVTAPLSEGQLAATRWQTHKMVVDTRNLRSYFRLLEDNRIMFGARGGISDTAASRATMKAWLLTQLAKQFPGLGAIGADYFWQGWVAIPRDKGPHIHVADNGSVAYWLGCTGTGVAMSTHAGKLLADSLATERRPDVPALVGAPLPRYEIPALRKLYQRAAYSYFYLKDEFLLEHHHHHH”, the “soluble on expression in E. coli” value is reported as “not soluble”. With “MSQLDLLNIVHRPRRLRRTAALRNLVQENTLTVNDLVFPLFVMPGTNAVEEVSSMPGSFRFTIDRAVEECKELYDLGIQGIDLFGIPEQKTEDGSEAYNDNGILQQAIRAIKKAVPELCIMTDVALDPFTPFGHDGLVKDGIILNDETVEVLQKMAVSHAEAGADFVSPSDMMDGRIGAIREALDETDHSDVGILSYAAKYASSFYGPFRDALHSAPQFGDKSTYQMNPANTEEAMKEVELDIVEGADIVMVKPGLAYLDIVWRTKERFDVPVAIYHVSGEYAMVKAAAAKGWIDEDRVMMESLLCMKRAGADIIFTYYAKEAAKKLR” the “soluble on expression in E. coli” value was “soluble”. For “MGSDKIHHHHHHMEAKWLEDFLSLADTKSFSRAARHRHLTQSAFSRRIAALETWMDAKLVDRSINPITLTPAGQMFRGLAADILRSMYAARNLVNGYDQFAASDQVVRFAVAHTLVFTLFPEWLKQLNGEVGHVTARVNAVNVPEGVQQLVEGECDLLLGYHHPQLPIVLDPNHFPFVTLGVERILPVSTPDAHGRPVFELPGAPDAPLPLLAYSSGAFLGNVVEMLLLNASESYALHRCFETHMSEALKGMVVAGHGIGWLPESCVAKELAEGSLVRAGSADWITELEIRLYRSARKRGLAAEQLWTYIMNRPRTAADGLVAAEPGAPAVRIARRSVGGSR”, the “soluble on expression in E. coli” value was “not soluble”. For “MGSDKIHHHHHHMCRILGYLGTPVLLEDLLYAPDSSLLNQTIGAQMLQMLNLAGFGMAAWDPASHDPHLPFRYRTTQVALFDRNLKALAGKLRPGALLAHIRGVPYNSTVQINEQNCHPFRFEGVPLAMAHNGDLAGFREMRFDLAPHVRPEFARQIQGSTDSEWIYALAVSALDDPAGVNEPDAILAAIRRALSILRDARARHGITRSSSTNLMFCDGVNLVAVRFTFDFGRFDAGKLQGTTEYLSMWYTFGRDYGLHDGEWKLTGGAASADSVMVASEPLTRDFATWIEVPEYSALIVRHEGARRRAEIHALEV”, the “soluble on expression in E. coli” value was “not soluble”. For “MASPLYLHSSDGPENLITNVQLKGENYEDWAKHVRNASRTKQKLGFIDGTLEKPTKEDDMEQ”, the “soluble on expression in E. coli” value was “not soluble”. With “MSLKRMLAEFEKIQAILMAFPHEFSDWAYCIKEARESFLNIIQTIAKHAKVLVCVHTNDTIGYEMLKNLPGVEIAKVDTNDTWARDFGAISIENHGVLECLDFGFNGWGLKYPSNLDNQVNFKLKSLGFLKHPLKTMPYVLEGGSIESDGAGSILTNTQCLLEKNRNPHLNQNGIETMLKKELGAKQVLWYSYGYLKGDDTDSHTDTLARFLDKDTIVYSACEDKNDEHYTALKKMQEELKTFKKLDKTPYKLIPLEIPKAIFDENQQRLPATYVNFLLCNDALIVPTYNDPKDALILETLKQHTPLEVIGVDCNTLIKQHGSLHCVTMQLYEGGSHHHHHH” the “soluble on expression in E. coli” value was “soluble”. In the case of “MSLLPVNNPPLSTGNVSFYRTTSIDNVHNNYLSEWVEWTKNSISGENRETAFTRLQLCLENSETSLDLSCLGLRSLPRLPDNLDEINVSNNQLSMLPELPRALKELNASSNQLSALPELPVSLEYINVSDNHLFALPELPASLEYINVSDNHLSVLPRLPMSLELLDAARNALEVIPDFPERDDHIIRIFWLNQNRITAIPESILGLSSDSVVNLRENQLSPRIMQTLLQQTAQPDYHGPRIYFSMSDGQQNTLHRPLADAVTAWFPENKQSDVSQIWHAFEHEEHANTFSAFLDRLSDTVSARNTSGFREQVAAWLEKLSASAELRQQSFAVAADATESCEDRVALTWNNLRKTLLVHQASEGLFDNDTGALLSLGREMFRLEILEDIARDKVRTLHFVDEIEVYLAFQTMLAEKLQLSTAVKEMRFYGVSGVTANDLRTAEAMVRSREENEFTDWFSLWGPWHAVLKRTEADRWAQAEEQKYEMLENEYPQRVADRLKASGLSGDADAEREAGAQVMRETEQQIYRQLTDEVLALRLSENGSQLHHSEGHHHHHH”, the “soluble on expression in E. coli” value is reported as “soluble”. In the case of “MTINMALHYPNYFAALVPQATAYSYYQYERNNDGTYKMIEDKNSISGKSSIRTNKIWFDSQKVKTLKNIPIWFIHSAADKVVNPKTYSLPIYKSLLDSGAKNKWFSYYDNVQGKDLKDTTYNGHWSWVYFFNNQVSSVQDVKTIKKSSKLSGFKPSNKSKGGAATAKEGKKSYNNVFDWLNDQKK”, the “soluble on expression in E. coli” value is reported as “not soluble”. With “MGSDKIHHHHHHMNAPDTSLAGASTASTASYDSAADGYNFAYLDEQTKRMLRRALLKAVAVPGYQVPFASREMPLPFGWGTGGIQVTAAIIGRKDTLKVIDQGSDETTNAVNIRRFFARTTGVATTRRTVDATIIQTRHRIPETPLTERQILVYQVPMPEPLFRLEPRVAECRKLHALADYGLISVKLYEDIVHHGSIATTYDYPVIVNHRYLASPSPIPKFDNPKMHMNPALQLFGAGRERRIHAIPPYTPVRSLDFDDHPFEVQKWHHACALCGSTESFLDEMIVDDAGKRMFVCSDSDYCHERRGDADFDPPSRDAGKGEPA” the “soluble on expression in E. coli” value was “not soluble”. In the case of “GMSRDRLYTWAGLWRSPSSSWEALRLEDDQAESQLRAPDERSGLPYQLDYRLRWDADWHLREAVFHVESETGVRKLHLLADGRGHWQDGDGEALPAFDGCLDIDIWPSPFTNTFPIRRLGLADGQRAEIRALYIEAPALEPRSMRQAYTRLDASHYLYENLEGSAFKAVLLVDEQGLVIDYPGLFQRL”, the “soluble on expression in E. coli” value is reported as “soluble”. In the case of “MNFQKLLKEAQKAQKKAAEVQERLERMTVVGSAQGLVEVEANGHGKILALRLKPEALKAFQDDPEGLEDLLLVAIQDAQTKAHELSEKEMAKELGGVGQMLGKLF”, the “soluble on expression in E. coli” value is reported as “soluble”. In the case of “FLKGGFDPKMNSKEALQILNLTENTLTKKKLKEVHRKIMLANHPDKGGSPFLATKINEAKDFLEKRGISK”, the “soluble on expression in E. coli” value is reported as “not soluble”. In the case of “MSLKPTIYDIAKKANVSKSTVSRVLNNQPNISDKAKASVLQAIKELNYEPSKIARGLSGNGFDAILALSHRTSHTTYGNPFFSDVIQSISAVSEQNNFDLILQTAKTPEEELEKCAKKIQEKMIRGIIILSSTMDETLLFELDQYNIPIVVIGKVGNDYTNIYSVDTDNFQDSYDLVETLIKNGHRHIGCLHAPTEVYVSNDRLNGYRQCLFDHHLDIRNEWIIDGGFRLEDSMAAMNDLMKLRERPTAIFSTDALKSLSIYKVAEQSGKQIPDDLSIAGFSDPLLSSLFSPQLTRIDIPTNQLGIKATELLFQLIHHQYPEEKRIILSTEITLTDSIEGHHHHHH”, the “soluble on expression in E. coli” value is reported as “not soluble”. With “MKPNITWGLQKIQAHGIADNTIYATEGTQIIFTVTSPWIPVFKVNDDVKIALTLTRHEEAWWIINQSTEYCCTVNDQIVEPHHRMRLNEGDLIEWGLSS” the “soluble on expression in E. coli” value was “not soluble”. For “MKLKKTDVFNLDGTVKQTAFIHDQKTGKKNTLYLKPVQQDLMLYHAWLIQQNMNSEWLFPSTSRPDRPITEKQFYKIMARVGDLLGINYLGTHTMRKTGAYRVYTQSNYNIGLVMHLLNHSSEAMTLTYLGLDQASRENMLDQIDFG”, the “soluble on expression in E. coli” value was “not soluble”. With “SAMLSSTMKIEALLTEKHINLNLGSSSKDEVIDTLIAMVADHDKVRDLKQLAEDVRKREREMSTGIGKNIGLPHAKTSAVTEPVLALATLSNEVDFESIDNQPVKIVFLLATPETMLAEHLKLLGRITRLAGRDDVRRKLIDAATPADVLELFKQEERDLPQI” the “soluble on expression in E. coli” value was “not soluble”. With “MIFEKAVIVDLRTQVLDVPVQETITKDNVPVRVNAVVYFRVVDPVKAVTQVKNYIMATSQISQTTLRSVIGQAHLDELLSERDKLNMQLQRIIDEATDPWGIKVTAVEIKDVELPAGMQKAMARQAEAERERRARITLAEAERQAAEKLREAAEIISEHPMALQLRTLQTISDVAGDKSNLEHHHHHH” the “soluble on expression in E. coli” value was “soluble”.
